Source: the supplement of paper PMC10065799, “High-throughput profiling of sequence recognition by tyrosine kinases and SH2 domains using bacterial peptide display” (eLife, 2023)

Test system: c-Src
Assay: phosphorylation enrichment, bacterial display (enrichment ratio); higher = better substrate or ligand; peptides without Tyr show the background
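Note: 11-residue human phosphosite peptides and single-mutation variants displayed on the E. coli surface, counted by deep sequencing, each peptide's frequency after selection divided by its frequency in the unselected input library; frequency after pTyr selection over input frequency; kinase dosed for 20-30% of maximal phosphorylation in three min.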

Row | Sequence | phosphorylation enrichment
1 | MEIHAYRKLLE [LMNA_Y376] | 0.397
2 | IVRSPYEDLED [VHL_Y185_L184P] | 0.531
3 | EVRAQYEEIAQ [KRT76_Y361] | 0.388
4 | CTTIHYNFMCF [TP53_Y234_N239Y_YF] | 0.474
5 | RHPFFYAPELL [ALB_Y174_YF] | 1.05
6 | LIFTNYEAGKD [GSTP1_Y112_YF] | 0.998
7 | QTEAQYRFIFM [PTPN11_Y511_YF] | 0.702
8 | SLALFYRKVYH [RBL1_Y792] | 0.379
9 | TSEASYFKSLN [NGEF_Y288_YF] | 0.677
10 | SVTCTYPPALN [TP53_Y126_S127P] | 0.485
11 | ILNANYMAKRL [GLDC_Y839] | 0.34
12 | VVKLTYNENDN [CAMKK2_Y183_A182T] | 0.419
13 | LIFVSYDDWDY [GRIN2A_Y281_S278F] | 0.914
14 | KQELVYTNKKL [OPTN_Y356] | 0.836
15 | VTPSEYLEIVR [TMEM130_Y412_E407V] | 0.44
16 | ISDNACQYMLT [MYH7_Y162_Y162C] | 0.811
17 | ETVHRYVELLD [AP1S3_Y87_I83T] | 0.461

Row | Sequence | phosphorylation enrichment
18 | RLLRGYDQLAY [HLA-C_Y137_S140L] | 0.45
19 | ARVDTYCRHNY [HLA-DRB1_Y107_A103R] | 0.468
20 | HHIDFYKKTTN [FGFR1_Y654_YF] | 0.489
21 | HILFRYPKEFQ [IDS_Y234_P231L] | 1.64
22 | KLSCSYSHLSA [C4BPA_Y470_W473L] | 0.584
23 | HAVYVCDICHV [TWNK_Y508_Y508C] | 0.916
24 | ISIFRYAKGQP [MPZ_Y82_H81R] | 0.404
25 | RHPYFFAPELL [ALB_Y174_Y174F] | 1.29
26 | GCRSKSVGLWG [KCNQ1_Y184_Y184S] | 0.436
27 | EDKFMYLEFPQ [PTEN_Y240_F241L] | 1.2
28 | PLQKTYNYNML [SLC4A1_Y553_V557M] | 0.52
29 | LEEFQYIGELQ [MSH2_Y856_S860L] | 0.738
30 | HVKHNYECLVF [XRCC5_Y416_I412V_YF] | 0.754
31 | RFQKLYLDRNL [IGFALS_Y248_L244F] | 0.332
32 | MDDPRYGVCPL [ZNF100_Y6_M8V] | 0.527
33 | ETAENYLGYTA [HSPA9_Y181_H184Y] | 0.678

Test system: AncSZ
Assay: as above

Row | Sequence | phosphorylation enrichment
34 | MEIHAYRKLLE [LMNA_Y376] | 0.804
35 | IVRSPYEDLED [VHL_Y185_L184P] | 1.31
36 | EVRAQYEEIAQ [KRT76_Y361] | 1.19
37 | CTTIHYNFMCF [TP53_Y234_N239Y_YF] | 1.04
38 | RHPFFYAPELL [ALB_Y174_YF] | 1.61
39 | LIFTNYEAGKD [GSTP1_Y112_YF] | 1.21
40 | QTEAQYRFIFM [PTPN11_Y511_YF] | 1.18
41 | SLALFYRKVYH [RBL1_Y792] | 1.23
42 | TSEASYFKSLN [NGEF_Y288_YF] | 0.972
43 | SVTCTYPPALN [TP53_Y126_S127P] | 0.886
44 | ILNANYMAKRL [GLDC_Y839] | 0.476
45 | VVKLTYNENDN [CAMKK2_Y183_A182T] | 0.939
46 | LIFVSYDDWDY [GRIN2A_Y281_S278F] | 2.07
47 | KQELVYTNKKL [OPTN_Y356] | 0.69
48 | VTPSEYLEIVR [TMEM130_Y412_E407V] | 0.969
49 | ISDNACQYMLT [MYH7_Y162_Y162C] | 1
50 | ETVHRYVELLD [AP1S3_Y87_I83T] | 0.905

Row | Sequence | phosphorylation enrichment
51 | RLLRGYDQLAY [HLA-C_Y137_S140L] | 1.29
52 | ARVDTYCRHNY [HLA-DRB1_Y107_A103R] | 0.825
53 | HHIDFYKKTTN [FGFR1_Y654_YF] | 0.855
54 | HILFRYPKEFQ [IDS_Y234_P231L] | 1.33
55 | KLSCSYSHLSA [C4BPA_Y470_W473L] | 1.15
56 | HAVYVCDICHV [TWNK_Y508_Y508C] | 1.1
57 | ISIFRYAKGQP [MPZ_Y82_H81R] | 0.791
58 | RHPYFFAPELL [ALB_Y174_Y174F] | 1.22
59 | GCRSKSVGLWG [KCNQ1_Y184_Y184S] | 0.51
60 | EDKFMYLEFPQ [PTEN_Y240_F241L] | 1.71
61 | PLQKTYNYNML [SLC4A1_Y553_V557M] | 0.878
62 | LEEFQYIGELQ [MSH2_Y856_S860L] | 1.92
63 | HVKHNYECLVF [XRCC5_Y416_I412V_YF] | 1.23
64 | RFQKLYLDRNL [IGFALS_Y248_L244F] | 0.726
65 | MDDPRYGVCPL [ZNF100_Y6_M8V] | 1.15
66 | ETAENYLGYTA [HSPA9_Y181_H184Y] | 1.17

Biological target: Fyn (UniProt P06241)
Assay: as above

Sequence of Fyn (P06241 whole entry, looked up): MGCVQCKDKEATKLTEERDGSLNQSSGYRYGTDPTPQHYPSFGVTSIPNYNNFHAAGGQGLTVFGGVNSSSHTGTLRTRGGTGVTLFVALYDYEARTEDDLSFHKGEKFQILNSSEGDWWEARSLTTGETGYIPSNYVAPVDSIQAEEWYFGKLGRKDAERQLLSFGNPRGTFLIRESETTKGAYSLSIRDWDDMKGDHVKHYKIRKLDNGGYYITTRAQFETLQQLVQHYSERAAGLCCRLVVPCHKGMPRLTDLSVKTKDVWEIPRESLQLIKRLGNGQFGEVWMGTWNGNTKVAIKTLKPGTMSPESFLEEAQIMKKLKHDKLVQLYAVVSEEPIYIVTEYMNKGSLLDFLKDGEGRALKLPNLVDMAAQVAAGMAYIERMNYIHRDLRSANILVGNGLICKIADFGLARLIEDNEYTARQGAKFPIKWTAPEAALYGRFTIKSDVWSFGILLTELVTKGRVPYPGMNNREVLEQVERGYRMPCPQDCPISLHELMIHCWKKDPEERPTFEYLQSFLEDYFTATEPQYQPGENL

Row | Sequence | phosphorylation enrichment
67 | MEIHAYRKLLE [LMNA_Y376] | 0.429
68 | IVRSPYEDLED [VHL_Y185_L184P] | 0.506
69 | EVRAQYEEIAQ [KRT76_Y361] | 0.526
70 | CTTIHYNFMCF [TP53_Y234_N239Y_YF] | 0.414
71 | RHPFFYAPELL [ALB_Y174_YF] | 1.32
72 | LIFTNYEAGKD [GSTP1_Y112_YF] | 0.414
73 | QTEAQYRFIFM [PTPN11_Y511_YF] | 0.612
74 | SLALFYRKVYH [RBL1_Y792] | 0.481
75 | TSEASYFKSLN [NGEF_Y288_YF] | 0.684
76 | SVTCTYPPALN [TP53_Y126_S127P] | 0.448
77 | ILNANYMAKRL [GLDC_Y839] | 0.412
78 | VVKLTYNENDN [CAMKK2_Y183_A182T] | 0.468
79 | LIFVSYDDWDY [GRIN2A_Y281_S278F] | 0.966
80 | KQELVYTNKKL [OPTN_Y356] | 0.441
81 | VTPSEYLEIVR [TMEM130_Y412_E407V] | 0.51
82 | ISDNACQYMLT [MYH7_Y162_Y162C] | 0.546
83 | ETVHRYVELLD [AP1S3_Y87_I83T] | 0.478

Row | Sequence | phosphorylation enrichment
84 | RLLRGYDQLAY [HLA-C_Y137_S140L] | 0.735
85 | ARVDTYCRHNY [HLA-DRB1_Y107_A103R] | 0.552
86 | HHIDFYKKTTN [FGFR1_Y654_YF] | 0.435
87 | HILFRYPKEFQ [IDS_Y234_P231L] | 0.63
88 | KLSCSYSHLSA [C4BPA_Y470_W473L] | 0.572
89 | HAVYVCDICHV [TWNK_Y508_Y508C] | 0.627
90 | ISIFRYAKGQP [MPZ_Y82_H81R] | 0.464
91 | RHPYFFAPELL [ALB_Y174_Y174F] | 0.601
92 | GCRSKSVGLWG [KCNQ1_Y184_Y184S] | 0.344
93 | EDKFMYLEFPQ [PTEN_Y240_F241L] | 0.889
94 | PLQKTYNYNML [SLC4A1_Y553_V557M] | 0.39
95 | LEEFQYIGELQ [MSH2_Y856_S860L] | 0.718
96 | HVKHNYECLVF [XRCC5_Y416_I412V_YF] | 0.584
97 | RFQKLYLDRNL [IGFALS_Y248_L244F] | 0.492
98 | MDDPRYGVCPL [ZNF100_Y6_M8V] | 0.609
99 | ETAENYLGYTA [HSPA9_Y181_H184Y] | 0.563

Biological target: EPHB1 (UniProt P54762)
Assay: as above

Sequence of EPHB1 (P54762 whole entry, looked up): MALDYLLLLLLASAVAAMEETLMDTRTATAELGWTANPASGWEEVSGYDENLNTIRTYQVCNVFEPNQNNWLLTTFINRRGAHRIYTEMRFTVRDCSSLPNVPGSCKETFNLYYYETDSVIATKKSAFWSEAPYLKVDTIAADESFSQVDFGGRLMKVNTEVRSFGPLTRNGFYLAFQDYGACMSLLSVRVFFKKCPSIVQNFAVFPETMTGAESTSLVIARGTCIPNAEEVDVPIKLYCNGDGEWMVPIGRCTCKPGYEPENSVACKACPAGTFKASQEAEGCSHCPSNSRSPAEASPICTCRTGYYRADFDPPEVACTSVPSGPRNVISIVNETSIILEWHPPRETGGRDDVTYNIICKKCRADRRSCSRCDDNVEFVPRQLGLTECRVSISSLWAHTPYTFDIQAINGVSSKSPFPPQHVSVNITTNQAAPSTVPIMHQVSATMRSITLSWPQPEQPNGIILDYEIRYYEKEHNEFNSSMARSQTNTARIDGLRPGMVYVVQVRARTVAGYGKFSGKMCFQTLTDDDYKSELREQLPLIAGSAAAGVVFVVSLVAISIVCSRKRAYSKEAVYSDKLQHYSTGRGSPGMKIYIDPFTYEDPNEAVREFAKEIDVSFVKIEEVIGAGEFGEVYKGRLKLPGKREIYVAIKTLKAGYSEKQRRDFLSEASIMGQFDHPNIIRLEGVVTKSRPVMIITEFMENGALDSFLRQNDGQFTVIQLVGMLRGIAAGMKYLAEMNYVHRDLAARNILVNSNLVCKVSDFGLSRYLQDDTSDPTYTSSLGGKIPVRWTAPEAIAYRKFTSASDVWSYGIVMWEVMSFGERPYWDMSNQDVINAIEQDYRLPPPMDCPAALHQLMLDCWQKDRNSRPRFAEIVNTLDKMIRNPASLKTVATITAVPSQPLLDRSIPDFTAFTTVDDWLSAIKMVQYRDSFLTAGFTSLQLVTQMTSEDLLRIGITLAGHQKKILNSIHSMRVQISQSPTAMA

Row | Sequence | phosphorylation enrichment
100 | MEIHAYRKLLE [LMNA_Y376] | 0.479
101 | IVRSPYEDLED [VHL_Y185_L184P] | 0.58
102 | EVRAQYEEIAQ [KRT76_Y361] | 0.697
103 | CTTIHYNFMCF [TP53_Y234_N239Y_YF] | 0.608
104 | RHPFFYAPELL [ALB_Y174_YF] | 1.18
105 | LIFTNYEAGKD [GSTP1_Y112_YF] | 0.703
106 | QTEAQYRFIFM [PTPN11_Y511_YF] | 0.774
107 | SLALFYRKVYH [RBL1_Y792] | 0.667
108 | TSEASYFKSLN [NGEF_Y288_YF] | 0.438
109 | SVTCTYPPALN [TP53_Y126_S127P] | 0.471
110 | ILNANYMAKRL [GLDC_Y839] | 0.334
111 | VVKLTYNENDN [CAMKK2_Y183_A182T] | 0.491
112 | LIFVSYDDWDY [GRIN2A_Y281_S278F] | 1.8
113 | KQELVYTNKKL [OPTN_Y356] | 0.496
114 | VTPSEYLEIVR [TMEM130_Y412_E407V] | 1.21
115 | ISDNACQYMLT [MYH7_Y162_Y162C] | 0.629
116 | ETVHRYVELLD [AP1S3_Y87_I83T] | 0.538

Row | Sequence | phosphorylation enrichment
117 | RLLRGYDQLAY [HLA-C_Y137_S140L] | 0.719
118 | ARVDTYCRHNY [HLA-DRB1_Y107_A103R] | 0.6
119 | HHIDFYKKTTN [FGFR1_Y654_YF] | 0.503
120 | HILFRYPKEFQ [IDS_Y234_P231L] | 0.822
121 | KLSCSYSHLSA [C4BPA_Y470_W473L] | 0.535
122 | HAVYVCDICHV [TWNK_Y508_Y508C] | 1.79
123 | ISIFRYAKGQP [MPZ_Y82_H81R] | 0.461
124 | RHPYFFAPELL [ALB_Y174_Y174F] | 0.723
125 | GCRSKSVGLWG [KCNQ1_Y184_Y184S] | 0.38
126 | EDKFMYLEFPQ [PTEN_Y240_F241L] | 0.879
127 | PLQKTYNYNML [SLC4A1_Y553_V557M] | 0.76
128 | LEEFQYIGELQ [MSH2_Y856_S860L] | 0.892
129 | HVKHNYECLVF [XRCC5_Y416_I412V_YF] | 1.36
130 | RFQKLYLDRNL [IGFALS_Y248_L244F] | 0.529
131 | MDDPRYGVCPL [ZNF100_Y6_M8V] | 0.673
132 | ETAENYLGYTA [HSPA9_Y181_H184Y] | 0.674
